Earlier results on one substance are cited in article PMC5729051.

The series deals with amyloid-beta oligomer (Homo sapiens) (UniProt P05067).

Turning to “Cellular Prion Protein (PrPC) (from UniProt P04156)”, the Kd (in general, the constant that tells how readily two partners part at equilibrium) is 0.4 nM.
